According to patent US20130195863A1, “Methods and Pharmaceutical Compositions for the Treatment of Bone Density Related Diseases” (priority 2010, published 2013):

How the values were obtained:
ROBO4 mRNA = ROBO4 mRNA expression after ROBO1 silencing; format: cell-based, human; settings: ROBO1 silencing in MDA-MB-231/B02 cells
Excerpt: (§1) The small hairpins RNA (siRNA) against human Robo1 were designed with the Promega Si Designer tool. The oligos used were as follows: ShRNA-RB1 forward, 5′-ACCgCAgTACTAAgggAA-CAATAAgTTCTCTATTgTTCCCTTAgTACTgCTTTTTC-3′(SEQ ID NO:1); ShRNA-RB1 reverse, 5′-TgCAgAAAAAgCAg-TACTAAgggAACAATAgAgAACTTATTgTTCCCTT-AgTACTg-3′ (SEQ ID NO:2).
(§2) The shRNAs and corresponding scrambles duplex were synthesized with the psiSTRIKE puromycin kit (Promega) under U6 promoter. MDA-MB-231/B02-Frt11 cells were transfected with the siRNA and scrambles duplex with Transfast Transfection Reagent (Promega), according to the manufacturer's instructions. Selection of the clones was obtained after growing the cells for two weeks in the presence of puromycin (2 μg/ml).
(§3) RNA isolation, reverse transcriptase-polymerase chain reaction (RT-PCR), and quantitative real-time PCR (qPCR): RNA was extracted from cells using the Nucleospin RNA II kit (Macherey-Nagel) and cDNA produced from 2 μg total RNA using the MMLV polymerase Promega. qPCR was performed using SYBR Green qPCR Kit (Finnzymes). Probes were purchased from Invitrogen.

[1] = test system: MDA-MB-231/B02 human breast cancer cells; experiment: Cell invasion assay (Matrigel-coated inserts); format: cell-based; settings: Sh1.32 and Sh1.33 cells vs scrambled-transfected and parental cells
Description: Cell migration and invasion assays: Cell migration and invasion assays were performed in 24-well cell culture chambers with 8-μm diameter pore-size inserts (Becton Dickinson), as previously described (Zhang et al., Cancer Res., 67:5821-5830, 2007). Inserts were coated with 100-μl basement membrane Matrigel (3 μg/ml; Becton Dickinson) for 90 min at 37° C. in order to perform cell invasion experiments. Cancer cells (1.5×10^5 cells/ml) were re-suspended in DMEM culture medium containing 0.1% (w/v) bovine serum albumin and 300-μl of this cell suspension were loaded into each insert (upper chamber). The chemoattractant [10% (v/v) fetal calf serum] was placed in the lower chamber (750 μl/well). The plates were incubated for 6 h at 37° C. in a 5% CO2 incubator. After incubation, the inserts were collected carefully, the nonmigrating cells were removed and the migrating cells on the under surface of the inserts were fixed and stained with crystal violet. The membranes were mounted on glass slides and cells were counted under microscope.

[2] = test system: MDA-MB-231/B02 human breast cancer cells; experiment: Scratch wound assay; format: cell-based; settings: Sh-transfected vs parental and scrambled-transfected cells; statistically significant
Description: Scratch wound assay: Cells were seeded at a concentration of 1×10^5 cells into 24-well plates and cultured for 24 hours at 37° C. in culture medium containing 10% (v/v) fetal calf serum. After incubation, the culture medium was removed and cells were further cultured in medium containing or not containing 5% (v/v) fetal calf serum, at which time a wound scratch was made on the cell monolayer by using a 20-μl micropipette tip. Cells were fixed, stained with crystal violet, and photographed 24 h later. Alternatively, cell migration was monitored by time-lapse videomicroscopy. Microscopic images were recorded, in a time lapse mode, with a CCD camera attached to a phase contrast microscope (Zeiss Axiovert 200M) and the behaviour of migrating cells was tracked over 24 hours using ImageJ software. Analysis of the images was performed using MetaMorph software.

ROBO1 mRNA = experiment: Quantitative real-time PCR of ROBO1 transcript after ROBO1 silencing; format: cell-based, human; settings: clones Sh1.32 and Sh1.33 vs scrambled-transfected SC2.1 and SC2.4 cells
Excerpt: as §1, §2, §3

ROBO1 = experiment: Confocal microscopy of ROBO1 immunostaining; format: cell-based, human; settings: ShRNA-transfected vs scrambled-transfected cells
Description: Confocal microscopy: Subconfluent cell layers were fixed in 4% (w/v) formaldehyde for 30 min, washed three times with PBS and permeabilized for 5 min in PBS containing 0.2% (v/v) Triton-X-100. Permeabilized cells were then incubated with rabbit anti-Robo1 antibody ab7279 (17 μg/ml; AbCam) for 1 h, washed in PBS then incubated with a secondary, FITC-conjugated, anti-rabbit antibody (Sigma). Actin was labeled with phalloidin (Invitrogen) and nuclei were labeled with DAPI. Slides were viewed using confocal microscope Leica TCS-SP2.

[3] = test system: breast cancer cells expressing ROBO1 (SC-transfected MDA-MB-231/B02); experiment: Effect of Slit2 on cell migration (96-microwell plates); format: cell-based, human; settings: conditioned medium from Slit2-expressing HEK cells; effect seen in SC-transfected cells as opposed to Sh-transfected (ROBO1-silenced) cells
Description: The effects of Slit2, […] (RANKL) and osteoprotegerin (OPG) on cell migration were studied using 96-microwell plates (Millipore). Experiments were carried out essentially as described above with minor modifications. Briefly, inserts were loaded with 75 μl of a cell suspension (2×10^5 cells/ml) and 150 μl of chemoattractant was placed in the lower chamber. The chemoattractant consisted of culture medium containing 0.5% (v/v) fetal calf serum with or without RANKL, OPG or the conditioned medium from Slit2-expressing HEK cells. Remaining of the experiments was as described above.

B1: ShRNA-RB1: small hairpin RNA against human Robo1, SEQ ID NO:1 forward and SEQ ID NO:2 reverse, under U6 promoter (nucleic acid)
sense: ACCGCAGTACTAAGGGAACAATAAGTTCTCTATTGTTCCCTTAGTACTGCTTTTTC
antisense: TGCAGAAAAAGCAGTACTAAGGGAACAATAGAGAACTTATTGTTCCCTTAGTACTG
modifications: target site or template, no part of the molecule
effect on ROBO4 mRNA expression levels (ROBO4 mRNA): did not affect
invasion [1]: substantial gain in invasion
wound closure [2]: faster wound closure
ROBO1 transcript down regulation (ROBO1 mRNA): 90%
ROBO1 immunostaining at the plasma membrane (ROBO1): totally disappeared

B2: Slit2: natural ligand of ROBO1; tested as conditioned medium from HEK cells stably expressing human Slit-2 (protein)
chain: QCSCSGSTVDCHGLALRSVPRNIPRNTERLDLNGNNITRITKTDFAGLRHLRVLQLMENKISTIERGAFQDLKELERLRLNRNHLQLFPELLFLGTAKLYRLDLSENQIQAIPRKAFRGAVDIKNLQLDYNQISCIEDGAFRALRDLEVLTLNNNNITRLSVASFNHMPKLRTFRLHSNNLYCDCHLAWLSDWLRQRPRVGLYTQCMGPSHLRGHNVAEVQKREFVCSGHQSFMAPSCSVLHCPAACTCSNNIVDCRGKGLTEIPTNLPETITEIRLEQNTIKVIPPGAFSPYKKLRRIDLSNNQISELAPDAFQGLRSLNSLVLYGNKITELPKSLFEGLFSLQLLLLNANKINCLRVDAFQDLHNLNLLSLYDNKLQTIAKGTFSPLRAIQTMHLAQNPFICDCHLKWLADYLHTNPIETSGARCTSPRRLANKRIGQIKSKKFRCSAKEQYFIPGTEDYRSKLSGDCFADLACPEKCRCEGTTVDCSNQKLNKIPEHIPQYTAELRLNNNEFTVLEATGIFKKLPQLRKINFSNNKITDIEEGAFEGASGVNEILLTSNRLENVQHKMFKGLESLKTLMLRSNRITCVGNDSFIGLSSVRLLSLYDNQITTVAPGAFDTLHSLSTLNLLANPFNCNCYLAWLGEWLRKKRIVTGNPRCQKPYFLKEIPIQDVAIQDFTCDDGNDDNSCSPLSRCPTECTCLDTVVRCSNKGLKVLPKGIPRDVTELYLDGNQFTLVPKELSNYKHLTLIDLSNNRISTLSNQSFSNMTQLLTLILSYNRLRCIPPRTFDGLKSLRLLSLHGNDISVVPEGAFNDLSALSHLAIGANPLYCDCNMQWLSDWVKSEYKEPGIARCAGPGEMADKLLLTTPSKKFTCQGPVDVNILAKCNPCLSNPCKNDGTCNSDPVDFYRCTCPYGFKGQDCDVPIHACISNPCKHGGTCHLKEGEEDGFWCICADGFEGENCEVNVDDCEDNDCENNSTCVDGINNYTCLCPPEYTGELCEEKLDFCAQDLNPCQHDSKCILTPKGFKCDCTPGYVGEHCDIDFDDCQDNKCKNGAHCTDAVNGYTCICPEGYSGLFCEFSPPMVLPRTSPCDNFDCQNGAQCIVRINEPICQCLPGYQGEKCEKLVSVNFINKESYLQIPSAKVRPQTNITLQIATDEDSGILLYKGDKDHIAVELYRGRVRASYDTGSHPASAIYSVETINDGNFHIVELLALDQSLSLSVDGGNPKIITNLSKQSTLNFDSPLYVGGMPGKSNVASLRQAPGQNGTSFHGCIRNLYINSELQDFQKVPMQTGILPGCEPCHKKVCAHGTCQPSSQAGFTCECQEGWMGPLCDQRTNDPCLGNKCVHGTCLPINAFSYSCKCLEGHGGVLCDEEEDLFNPCQAIKCKHGKCRLSGLGQPYCECSSGYTGDSCDREISCRGERIRDYYQKQQGYAACQTTKKVSRLECRGGCAGGQCCGPLRSKRRKYSFECTDGSSFVDEVEKVVKCGCTRCVS
migration of SC-transfected cells induced by FCS [3]: inhibited the migration
